Test results published in publication PMC8511391 (2021).
Ends that are not written are not given here.

Tests used:
[1] = target: T1, Kv1.3 (Homo sapiens, UniProt P22001); assay: patch-clamp kinetics (koff/kon)
[2] = target: T2, Kv1.2 (Homo sapiens, UniProt P16389); assay: patch-clamp kinetics (koff/kon)
[3] = target: T1, Kv1.3; assay: patch-clamp dose-response
[4] = target: T2, Kv1.2; assay: patch-clamp dose-response

T1 sequence (P22001 whole entry): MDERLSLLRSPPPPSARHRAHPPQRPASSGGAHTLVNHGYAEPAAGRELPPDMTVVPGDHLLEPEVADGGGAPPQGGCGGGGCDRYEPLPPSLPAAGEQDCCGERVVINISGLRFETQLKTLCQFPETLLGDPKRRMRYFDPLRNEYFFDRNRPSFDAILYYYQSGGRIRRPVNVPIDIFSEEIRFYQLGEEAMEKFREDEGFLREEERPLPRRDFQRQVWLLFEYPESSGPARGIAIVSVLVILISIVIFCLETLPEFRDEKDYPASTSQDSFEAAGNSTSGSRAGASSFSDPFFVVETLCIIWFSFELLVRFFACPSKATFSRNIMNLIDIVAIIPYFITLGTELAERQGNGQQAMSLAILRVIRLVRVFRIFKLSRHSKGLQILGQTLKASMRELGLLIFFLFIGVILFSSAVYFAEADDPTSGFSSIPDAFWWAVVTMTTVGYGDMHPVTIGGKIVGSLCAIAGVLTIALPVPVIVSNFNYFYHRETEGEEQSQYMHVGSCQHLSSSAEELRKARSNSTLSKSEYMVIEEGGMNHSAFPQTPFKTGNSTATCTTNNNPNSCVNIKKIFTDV
T2 sequence (P16389 whole entry): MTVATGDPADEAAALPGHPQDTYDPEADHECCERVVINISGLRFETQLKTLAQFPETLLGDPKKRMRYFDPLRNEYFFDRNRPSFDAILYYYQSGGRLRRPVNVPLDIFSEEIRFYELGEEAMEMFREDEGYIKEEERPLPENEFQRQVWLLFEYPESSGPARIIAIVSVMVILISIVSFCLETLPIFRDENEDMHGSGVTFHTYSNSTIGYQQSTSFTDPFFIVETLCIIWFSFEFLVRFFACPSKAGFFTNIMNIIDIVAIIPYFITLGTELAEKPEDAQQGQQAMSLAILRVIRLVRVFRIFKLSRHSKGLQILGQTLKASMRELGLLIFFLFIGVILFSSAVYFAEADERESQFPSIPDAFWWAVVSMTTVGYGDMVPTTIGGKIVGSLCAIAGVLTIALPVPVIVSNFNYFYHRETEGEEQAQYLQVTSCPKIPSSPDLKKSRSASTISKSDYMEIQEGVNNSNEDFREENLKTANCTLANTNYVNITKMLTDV

TIINVKCTSPKQCLPPCKAQFGQSAGAKCMNGKCKCYPH [Margatoxin (UrMgTx)]
Kd [1]: 0.0522 nM
Kd [2]: 0.015 nM
Kd [3]: 0.05 nM
Kd [4]: 0.014 nM

{Glu-Phe-H2N-H2N-H2N-H2N-H2N-H2N}-LQIEGRTIINVKCTSPKQCLPPCKAQFGQSAGAKCMNGKCKCYPH (not fully specified; ends and bridges not checked) [Margatoxin (TrMgTx)]
Kd [1]: 0.0839 nM
Kd [2]: 0.0623 nM
Kd [3]: 0.086 nM
Kd [4]: 0.064 nM
